Our source for the koff values is patent US20140193401A1 (published 2014).

What all share (assay): SPR (BIAcore 3000), mAb 1B7 immobilised on CM5 chip, toxin injected
In one experiment the target is T1, PTx-S1-220 Y148A (Bordetella pertussis, UniProt P04977 35-254).
T1 chain: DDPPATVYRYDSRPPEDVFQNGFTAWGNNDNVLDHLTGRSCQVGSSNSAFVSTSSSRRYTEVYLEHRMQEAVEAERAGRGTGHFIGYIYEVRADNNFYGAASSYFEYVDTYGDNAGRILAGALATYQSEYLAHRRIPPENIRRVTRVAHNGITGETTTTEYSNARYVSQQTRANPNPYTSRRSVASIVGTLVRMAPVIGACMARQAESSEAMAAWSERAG

Another experiment has as its target T2, PTx-S1-220 E155A (Bordetella pertussis, UniProt P04977 35-254).
T2 chain: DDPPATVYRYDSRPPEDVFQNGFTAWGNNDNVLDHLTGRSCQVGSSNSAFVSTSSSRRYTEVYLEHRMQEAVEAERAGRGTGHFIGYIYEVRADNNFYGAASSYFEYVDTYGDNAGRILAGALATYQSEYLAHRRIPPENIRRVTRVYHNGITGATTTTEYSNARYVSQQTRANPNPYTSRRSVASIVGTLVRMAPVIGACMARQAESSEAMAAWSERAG

A further experiment deals with T3, PTx-S1-220 R39A (Bordetella pertussis, UniProt P04977 35-254).
T3 chain: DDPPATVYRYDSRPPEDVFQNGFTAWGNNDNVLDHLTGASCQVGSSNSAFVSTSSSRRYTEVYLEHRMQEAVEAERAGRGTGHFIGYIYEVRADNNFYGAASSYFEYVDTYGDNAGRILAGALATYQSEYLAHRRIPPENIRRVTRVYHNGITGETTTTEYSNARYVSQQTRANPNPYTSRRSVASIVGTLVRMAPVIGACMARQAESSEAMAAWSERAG

A further experiment deals with T4, PTx-S1-220 E210A (Bordetella pertussis, UniProt P04977 35-254).
T4 chain: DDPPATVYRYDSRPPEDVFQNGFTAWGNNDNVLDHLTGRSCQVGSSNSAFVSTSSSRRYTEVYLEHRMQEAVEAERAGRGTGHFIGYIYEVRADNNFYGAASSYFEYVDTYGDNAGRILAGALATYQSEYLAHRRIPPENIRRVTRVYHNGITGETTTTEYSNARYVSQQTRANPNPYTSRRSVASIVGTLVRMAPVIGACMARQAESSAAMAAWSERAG

A further experiment deals with T5, PTx-S1-220 T156A (Bordetella pertussis, UniProt P04977 35-254).
T5 chain: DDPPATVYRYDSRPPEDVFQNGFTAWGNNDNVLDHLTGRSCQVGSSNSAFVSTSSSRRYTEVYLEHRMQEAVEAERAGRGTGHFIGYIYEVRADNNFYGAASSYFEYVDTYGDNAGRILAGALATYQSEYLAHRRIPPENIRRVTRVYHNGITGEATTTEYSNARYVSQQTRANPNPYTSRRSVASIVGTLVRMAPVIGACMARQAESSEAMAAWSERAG

The next experiment has as its target T6, PTx-S1-220 Y161A (Bordetella pertussis, UniProt P04977 35-254).
T6 chain: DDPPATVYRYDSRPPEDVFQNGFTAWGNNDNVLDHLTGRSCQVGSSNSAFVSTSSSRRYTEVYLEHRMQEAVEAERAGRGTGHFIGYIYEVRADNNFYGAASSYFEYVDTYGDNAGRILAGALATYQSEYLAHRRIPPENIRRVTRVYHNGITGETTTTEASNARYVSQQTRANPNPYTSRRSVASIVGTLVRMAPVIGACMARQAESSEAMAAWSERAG

The target of another experiment is T7, PTx-S1-220 N150A (Bordetella pertussis, UniProt P04977 35-254).
T7 chain: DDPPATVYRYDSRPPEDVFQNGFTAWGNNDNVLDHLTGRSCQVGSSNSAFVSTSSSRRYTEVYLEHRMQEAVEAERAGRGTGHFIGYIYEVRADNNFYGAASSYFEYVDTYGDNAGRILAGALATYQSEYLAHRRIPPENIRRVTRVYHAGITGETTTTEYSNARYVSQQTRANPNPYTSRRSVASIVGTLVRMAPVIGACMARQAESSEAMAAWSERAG

For a further experiment, the target named is T8, PTx-S1-220 H83A (Bordetella pertussis, UniProt P04977 35-254).
T8 chain: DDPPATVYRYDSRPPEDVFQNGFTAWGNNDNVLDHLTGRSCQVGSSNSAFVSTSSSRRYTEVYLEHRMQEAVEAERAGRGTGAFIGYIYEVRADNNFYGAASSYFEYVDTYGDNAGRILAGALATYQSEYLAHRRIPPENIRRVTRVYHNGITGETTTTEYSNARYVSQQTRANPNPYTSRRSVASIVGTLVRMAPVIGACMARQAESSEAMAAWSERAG

A further experiment addresses T9, PTx-S1-220 N176A (Bordetella pertussis, UniProt P04977 35-254).
T9 chain: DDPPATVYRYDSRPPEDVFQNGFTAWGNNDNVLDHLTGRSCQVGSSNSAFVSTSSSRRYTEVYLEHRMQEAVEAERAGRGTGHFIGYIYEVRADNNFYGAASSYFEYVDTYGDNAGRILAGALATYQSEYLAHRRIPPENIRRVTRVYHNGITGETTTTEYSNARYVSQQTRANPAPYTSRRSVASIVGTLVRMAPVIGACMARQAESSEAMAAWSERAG

B1: murine monoclonal antibody 1B7 (antibody, V domains shown)
VH: EVQLQQSGSELVRPGASVKLSCKASGYKFTSYWMHWVKQRPGQGLEWIGNIFPGSGSTNYDEKFNSKATLTVDTSSNTAYMQLSSLTSEDSAVYYCTRWLSGAYFDYWGQGTTLTVSS
VL: DIQMTQSPALMSASPGEKVTMTCSASSSVSFMYWYQQKPRSSPKPWIYLTSNLPSGVPARFSGSGSGTSYSLTISSMEAEDAATYYCQQWSSHPPTFGSGTKLEIKR
notes: also called mAb 1B7; 1B7 mAb
As for B1, the koff with PTx-S1-220 Y148A came to 0.029 s⁻¹; with PTx-S1-220 E155A, 0.0011 s⁻¹; with PTx-S1-220 R39A, 0.003 s⁻¹; in the experiment with PTx-S1-220 E210A, 0.0016 s⁻¹; in the experiment with PTx-S1-220 T156A, 0.0011 s⁻¹; with PTx-S1-220 Y161A it was 0.0013 s⁻¹. The figures for the off-rate constant (koff) in the experiment with PTx-S1-220 N150A, with PTx-S1-220 H83A and with PTx-S1-220 N176A were 0.008 s⁻¹, 0.01 s⁻¹ and 0.0011 s⁻¹, respectively.
